Data from PMC6322740, “Structural characterization of a pathogenicity-related superoxide dismutase codified by a probably essential gene in Xanthomonas citri subsp. citri” (PLoS ONE, 2019).

Molecular target: the molecule itself
Experiment: SEC; Superdex 200 10/300, 50 mM Tris-HCl pH 8.0, 150 mM NaCl; tag removed with thrombin; oligomeric state estimated from the molecular mass

B1: XcSOD, manganese containing superoxide dismutase from Xanthomonas citri subsp. citri (enzyme)
chain: MAYTLPQLPYAYDALEPNIDAQTMEIHHTKHHQTYINNVNAALEGTEYADLPIEELVSKLKSLPENLQGPVRNNGGGHANHSLFWTVLSPNGGGEPKGEVAKAIDKDLGGFEKFKEAFTKAAVSRFGSGWAWLSVTPDKKLVVESTANQDSPLFEGNTPILGLDVWEHAYYLKYQNRRPEYIGAFYNAVNWEEVERRYHAAIA
notes: Cloned in pET28a; His-tag removed with thrombin before size exclusion chromatography and crystallization; also called MnSOD; product of the sodM gene (XAC2386); source: E. coli BL21 (DE3), purified (Ni-NTA, thrombin, size exclusion chromatography); not shown: His-tag, N-terminal, cleaved
stoichiometry N: 2
